# Tests used:
# fibroblasts = assay: Fibroblast adherence to collagen fibers during collagenase treatment; type: cell-based; settings: during collagenase treatment of the fiber
# Procedure: Fibroblast adherence to collagen fibers. The fibroblast morphological change was recorded using The LSM 710-laser scanning confocal microscope (Zeiss) over a period of 90 minutes. The fibroblasts nuclei were stained using Hoechst 33342 (Thermo Fisher Scientific, MA, USA). The Hoechast 16.23 mM stock solution was diluted 1:2000 in Dulbecco's Phosphate Buffer Saline (DPBS, Sigma-Aldrich, St. Louis, USA) and the collagen fiber buffer was removed. 3 ul of the diluted solution was added, followed by 10 minutes light protected incubation. The staining solution was removed, and the fiber was washed 3 times in PBS.
# pancreatic tumors = assay: Penetrance of gold nanoparticles after pretreatment of PDAC mice; settings: mouse, in vivo
# Procedure: In order to quantify the extent to which encapsulation of collagenase in liposomes improved drug penetrance over free collagenase, PDAC mice were pretreated (intravenous injection twice, 24 hours apart) with empty liposomes, free collagenase or liposome encapsulated collagenase and then 24 hours later gold nanoparticles of various sizes. Specifically, 5, 20, and 100 nm gold nanoparticles were injected and gold penetrance to various organs was monitored 24 hours later. Liposome encapsulated collagenase increased the penetrance of 100 nm (FIG. 6B) and 20 nm (FIG. 6C) gold particles into pancreatic tumors as compared to free collagenase and empty liposomes. […] The experiment was repeated, and more organs/bodily fluids were examined, but similar results were obtained (FIG. 6E-G).
# PDAC tumors = assay: Effect of the collagenase treatment on pancreatic uptake of Gd-/iodine-liposomes; type: in vivo, C57BL/6 mice; settings: PDAC mice, Gd-liposomes after pretreatment
# Procedure: Control groups included injections of empty liposomes (n=10 mice), free collagenase (n=5 mice) or no injection at all (n=3 mice) instead of collagenase encapsulating liposomes. […] 24 hours later, the animals were euthanized, and their organs were harvested. The amount of Gadolinium in each organ was analyzed using elemental analysis (ICP-EOS, Agilent) at wavelengths of 335.048 and 342.246 nm. The organs were harvested, weighed and then burnt at 550° C. overnight. The burnt organs were dissolved in 5 ml of 1% nitric-acid and filtered using […] filters (Millipore Millex-GV, Merck, Darmstadt, Germany). The Gd concentration in the organs was measured using an ICP-EOS elemental analysis.
# Micro-CT scan. Mice were imaged using an IVIS Spectrum CT Pre-clinical in-vivo imaging system (PerkinElmer, MA, USA) with the following parameters: CT was set to 50 ms, total projections were 720, voltage was set to 50 kV while the current to 1 mA the binning was determined to 2 and the X-ray filter was set to 440 A1. Hounsfield calibration was performed in air-0.004168 and water-0.5513. Two groups of tumors bearing mice (n=5 each) were divided to control and test group. The mice were weighed weekly and tumor progression was monitored by weekly IVIS scans (PerkinElmer). […] Tumor dimensions were assessed using the ROI tool in the IVIS imaging software (Living Image, PerkinElmer).
# [1] = system: fluorescein conjugated gelatin substrate
# Procedure: Collagenase activity assay. Collagenase type-I activity was determined using gelatin with fluorescein conjugate as a substrate (ThermoFisher). Collagenase (100 μl) was mixed with 80 μl of reaction buffer (0.05M Tris-HCl, 0.15M NaCl, 5 mM CaCl2, 0.2 mM sodium azide at pH 7.6) and 20 μl of 0.125 mg/ml gelatin diluted in PBS. The fluorescent intensity was measured every 15 seconds over a period of 3 minutes at 485 nm and 530 nm (excitation/emission) using an Infinite 200PRO. Collagenase activity was measured at 37° C., where plasma or PBS served as control.
# To test the collagenase activity, liposomal collagenase after dialysis or free collagenase in phosphate buffered saline at a concentration of 5 ug/ml, were incubated at 37° C. Every hour, a collagenase sample was assessed for its capacity to cleave a fluorescein conjugated gelatin substrate (Thermo Fisher). Activity of the released collagenase was determined in accordance to the change in fluorescence over 3 minutes, relative to the fluorescence at t=0.
# In order to quantify the protective nature of liposome encapsulation versus free collagenase, both free enzyme and encapsulated enzyme were incubated in PBS or serum and protein activity was measured by Enzcheck Assay at 0, 1, 6 and 24 hours.
# [2] = system: human pterygium transplanted to their eyes; assay: Free collagenase I injection to the conjunctiva of mice with transplanted human pterygium; type: in vivo; settings: 10 mg/ml by injection to the conjunctiva
# Procedure: Pterygium is known to comprise four types of collagen: types I, II, III and IV. The stroma of pterygium and normal conjunctival tissue contains collagen types I, II, and […]. To test the ability of collagenase to break up and treat pterygium, mice that had human pterygium transplanted to their eyes were administered 10 mg/ml free collagenase I by injection to the conjunctiva.
# [3] = system: fluorescein conjugated gelatin; assay: Collagenase activity test in various conditions (temperature, ethanol, pH, extrusion pressure); type: biochemical
# Procedure: Collagenase activity assay. Collagenase activity was assessed using fluorescein conjugated gelatin (ThermoFisher) as a substrate. The enzyme solution was added to the substrate solution together with a reaction buffer (0.5 M Tris-HCl, 1.5 M NaCl, 50 mM CaCl2, 2 mM sodium azide, pH 7.6). Fluorescence intensity for every sample was measured every 15 seconds for 3 minutes with excitation set at 485 nm and emission at 530 nm using the Infinite 200 PRO multimode reader (TECAN, Mannedorf, Switzerland). A linear incline was determined, and collagenase concentration was calculated using a calibration curve generated by collagenase samples of known concentrations.
# Having established that collagenase's activity drops rapidly at 37 degrees (FIG. 7B), other parameters during liposome production that might affect the protein's integrity and function were examined.
# Lastly, the activity of free collagenase at various pH was assayed.
# PDAC collagen = assay: Collagen analysis after ex-vivo collagenase treatment of pancreatic tumor slices; design: species or system mice; settings: PDAC treated with 0.05-0.2 mg/ml collagenase ex-vivo, Masson's trichrome
# Procedure: Collagen analysis after the collagenase treatment. Pancreatic tumors were harvested from tumor bearing mice, six weeks after the initiation of the tumor model. Each tumor was sliced horizontally to 1 cm thick slices. All the extracted slices were mixed and randomly chosen for different treatments groups. Treatments included incubation in DMEM medium (Sigma-Aldrich) with collagenase type-I (Sigma-Aldrich) at increasing concentrations: 0.05, 0.1 or 0.2 mg/ml for either 8 or 24 hours. Following the enzymatic treatment, the tumor slices were sectioned, fixated in 10% formalin (Sigma-Aldrich) and stained with Masson's trichrome. Computerized morphometry was utilized to quantitate the fraction of the fibrotic area out of the total area of the tumor in each sample. Computerized morphometry of the collagen was used to determine fibrosis fraction within each sample. Masson's trichrome staining was performed to identify the pancreatic fibrosis. Then, stained slides were entirely scanned at magnification of X20 using the Panoramic MIDI automatic digital slide scanner (3DHistech, Budapest, Hungary). The whole slide was analyzed in Image Pro Premier 9.2 software (Media Cybernetics, MD, USA). Fibrosis area was calculated according to the blue staining within the tissue, and the tissue area was calculated by choosing the whole tissue with the machine ‘color picker tool’.
# Wistar rats = settings: rat, in vivo
# Procedure: All rats were anesthetized in two stages. In the first stage the rats were anesthetized with isoflurane. In the second stage each rat was injected a mixture of Ketamine and Xylazine intraperitoneally. After each procedure, the rats were transferred and kept in an incubator, with constant oxygen flow, until they reached full recovery.
# An ordinary orthodontic Ni—Ti closed coil spring (9 mm closed coil spring nickel and titanium alloy that has 2 eyelets with an inner radius of 0.76 mm) was used to connect the 1st molar in the upper pallet to the front upper incisors of the rat. The Ni—Ti coil spring was glued to the tooth (3M UNITEK), which generates constant force of 200 grams (1.96 N) when extended between 12-24 mm. The force applied in the oral cavity was the same on all the rats that participated in the experiment. […] The procedure of installing the Ni—Ti coil closed spring was performed using human orthodontics equipment and materials. The 1st upper molar and the upper incisors were dried and cleaned using cotton swabs to remove any debris that accumulates. […]
# Collagenase-liposomes (see above Liposome Preparation), or a similar concentration of free collagenase, were applied directly to the sulcus. […] The distance between the eyelet of the Ni—Ti closed coil on the first molar and the back of the upper incisors was measured and recorded using the digital caliper. […]
# Collagen type-I bundles = assay: Stress/strength profile of collagen fibers exposed to proteolytic enzymes; type: biochemical, Wistar rats
# Procedure: Stress/strength profile of collagen fibers exposed to collagenase: Collagen type-I bundles, sourced from the tails of Wistar rats, were suspended using a LLOYD LF-Plus Digital Material Tester force machine. The bundles were suspended inside a bath loaded with a buffer that simulates the composition of the oral fluid: an isotonic solution, pH 6.7 at 37° C. complemented with electrolytes including sodium, potassium, calcium, magnesium, bicarbonate, and phosphates. The bundles, 0.8-1.2 mm in diameter, were cut into two equal 4-cm sections, acting as an internal control. Collagenase type-I from Clostridium histolyticum (Sigma-Aldrich) was added at different concentrations and the stress/strength profile of the collagen fibers was recorded as a function of the collagenase treatment. The Ultimate Tensile Strength (UTS) of the collagen bundle was determined for each collagenase concentration.
# Collagen regeneration SEM. Collagen bundles were mounted on carbon tape and imaged using a Zeiss UltraPlus high-resolution scanning electron microscope (HR-SEM) equipped with an Everhart-Thornley secondary electron detector. Each bundle was then cut in half. The untreated half acted as an internal control for each treated bundle. All data points are the mean of 14-20 experimental points. Collagen fibers were exposed to 0.05 mg/ml collagenase for 8 hours. Ethylenediaminetetraacetic acid (EDTA; ST. Louis, USA), 3 mM along with two drops of NH4Cl 1M buffer, were added for 30 minutes in order to retard the enzyme's activity. Subsequently, the media was removed, and the treated bundles were washed two times with new growth media to allow bundle regeneration.
# Collagen fibers regain their initial mechanical strength post nano-surgery. Collagen fibers were sourced from tails of Wistar rats. Each bundle was cut in half. The untreated half acted as an internal control for each treated bundle. All presented data points are the mean of 14-20 experimental points. Collagen fibers were exposed to collagenase at concentration of 0.05 mg/ml for 8 hours in order to weaken the bundles. […] Subsequently, the media was removed, and the treated bundles were washed twice with new growth media.
# Two plant-based proteolytic enzymes were also tested for their ability to relax collagen: bromelain and papain. These plant-based enzymes are not specific to collagen but have been reported to act on collagen fibers. Collagens fiber strength was tested with a force machine in the presence of 1 mg/ml collagenase, bromelain or papain. The force required to break a bundle of fibers with no treatment was set to 1, and the force required to break the treated fiber bundles was standardized to this force. […] At this same time point bromelain and papain reduced the strength of the collagen fibers such that less than 70% of the control force was needed to rupture the fibers. […] Thus, both papain and bromelain served as effective collagen relaxing enzymes, though much weaker ones than […].
substance,measurement,setting,value
collagenase,fibroblast detachment and viability,fibroblasts,fibroblast viability was retained
same,penetrance of 5 nm particles into tumors,pancreatic tumors,decreased penetrance
same,pancreatic uptake by elemental analysis of Gd,PDAC tumors,15.1 μg-Gd/g-pancreas
same,half-life of collagenase once activated,[1],several hours
same,effect on the eye,[2],"general breakdown of the eye, with extreme inflammation and damage seen throughout the eye"
same,activity of free collagenase at various pH,[3],Basic pH was found to result in improved collagenase activity
same,activity of free enzyme versus temperature,[3]; 50 degrees or greater,completely abrogated protein function
same,activity of free enzyme in ethanol,[3]; as little as 20% ethanol,completely abrogated protein function
same,protein activity versus ethanol during liposome production,[3]; ethanol procedure,Inclusion of any amount of ethanol was also found to denature the protein and reduce its activity
same,protein activity versus extrusion force,[3]; ethanol procedure,a force above 10 bar during extrusion was found to have a negative effect on protein activity
same,protein activity versus temperature during liposome production,[3]; ethanol procedure,temperatures above 25 began reducing protein activity
same,level of fibrotic tissue,PDAC collagen,1.28±0.3%
same,inflammation of the gingival tissue (histology),Wistar rats,mild inflammation
same,"force needed to rupture the fibers, standardized to control force","Collagen type-I bundles; 1 mg/ml, 4 hours of treatment",almost no force
same,time to degrade the collagen fibers,Collagen type-I bundles; 0.5 and 1 mg/mL collagenase,less than 10 hours
same,initial strength profile regained by collagen fibers,Collagen type-I bundles; after the collagenase activity was retarded (16 h),~90%
same,therapeutic window: fibers relaxed but not fully degraded,Collagen type-I bundles; oral physiological conditions,0.05 to 0.1 mg/mL
same,decrease of collagen fiber strength,"Collagen type-I bundles; therapeutic dose of collagenase (0.05 mg/ml, 8 h)",approximately 50%

# Reference: patent US11992557B2, “Collagenase loaded liposomes for enhancing drug delivery” (TECHNION RESEARCH & DEVELOPMENT FOUNDATION LIMITED, priority 2018, dated 2024)
